Test results taken from article PMC8615095.
Like-named read-outs stand apart in the source and are kept apart here.

Experiments:
[1] = target: membrane-bound IgE-Fc (IgE-Fc-B-cell receptor: 3xFLAG-Cε2-Cε3-Cε4-EMPD-transmembrane-intracellular domain)
[2] = target: membrane-bound IgE-Fc (IgE-Fc-B-cell receptor: 3xFLAG-Cε2-Cε3-Cε4-EMPD-transmembrane-intracellular domain); remark: listed apart in the source
[3] = target: membrane-bound IgE-Fc (IgE-Fc-B-cell receptor: 3xFLAG-Cε2-Cε3-Cε4-EMPD-transmembrane-intracellular domain); remark: listed apart in the source
[4] = target: membrane-bound IgE-Fc (IgE-Fc-B-cell receptor: 3xFLAG-Cε2-Cε3-Cε4-EMPD-transmembrane-intracellular domain); experiment: flow cytometry on cells; graded concentrations of His-tagged BiTE on Ramos-Fcε (doxycycline-induced), empty-vector Ramos, Jurkat E6-1 or TIB-153 cells, 30 min on ice in 2% BSA-PBS; detected with anti-pentahis-AlexaFluor 488 (Ramos) or 647 (Jurkat, TIB-153); EC50 from geometric mean fluorescence
[5] = target: CD19 (Homo sapiens (endogenous, Ramos EHRB)) (UniProt P15391)
[6] = target: CD19 (Homo sapiens (endogenous, Ramos EHRB)) (UniProt P15391); experiment: flow cytometry on cells; graded concentrations of His-tagged BiTE on Ramos-Fcε (doxycycline-induced), empty-vector Ramos, Jurkat E6-1 or TIB-153 cells, 30 min on ice in 2% BSA-PBS; detected with anti-pentahis-AlexaFluor 488 (Ramos) or 647 (Jurkat, TIB-153); EC50 from geometric mean fluorescence
[7] = target: CD19 (Homo sapiens (endogenous, Ramos EHRB)) (UniProt P15391); experiment: as above; remark: listed apart in the source

Sequence of CD19 (Homo sapiens (endogenous, Ramos EHRB)) (P15391 20-556): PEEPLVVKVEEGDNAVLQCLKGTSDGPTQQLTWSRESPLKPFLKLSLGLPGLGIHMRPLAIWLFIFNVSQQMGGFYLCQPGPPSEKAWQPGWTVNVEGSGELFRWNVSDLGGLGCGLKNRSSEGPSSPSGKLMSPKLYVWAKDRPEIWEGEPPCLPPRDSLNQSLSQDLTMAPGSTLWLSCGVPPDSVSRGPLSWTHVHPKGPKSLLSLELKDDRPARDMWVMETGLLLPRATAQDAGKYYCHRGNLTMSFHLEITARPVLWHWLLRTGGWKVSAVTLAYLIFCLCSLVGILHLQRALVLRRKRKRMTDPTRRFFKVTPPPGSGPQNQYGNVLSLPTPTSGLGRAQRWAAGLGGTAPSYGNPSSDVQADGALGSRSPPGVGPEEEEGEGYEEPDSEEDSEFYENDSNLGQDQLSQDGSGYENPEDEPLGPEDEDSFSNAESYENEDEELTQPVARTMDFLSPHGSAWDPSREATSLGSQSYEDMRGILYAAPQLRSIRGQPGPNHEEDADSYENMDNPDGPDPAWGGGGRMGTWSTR

| Substance | EC50 [4] [nM] | IL-2 promoter-luciferase reporter in CD3-overexpressing T cells, fold activation with Ramos-Fcε target cells, E:T 2.5, at 400 pM [1] [fold] | NFAT-luciferase reporter in CD3-overexpressing T cells, fold induction with Ramos-Fcε target cells, E:T 5:1, at 80 pM [3] [fold] | also measured |
| --- | --- | --- | --- | --- |
| MEDI4212-based BiTE (anti-IgE scFv of MEDI4212 fused to anti-CD3ε scFv) (bispecific antibody) | 0.4 | 4 | 9 | NFAT-luciferase reporter in CD3-overexpressing T cells, fold activation with Ramos-Fcε target cells, E:T 1:1, at 400 pM [2]: 10 fold |
| quilizumab-based BiTE (anti-IgE EMPD scFv of quilizumab fused to anti-CD3ε scFv) (bispecific antibody) | 40 |  |  |  |
| blinatumomab (anti-CD19 scFv fused to anti-CD3ε scFv, with C-terminal 8-His-tag) (bispecific antibody) |  |  |  | NFAT-luciferase reporter in CD3-overexpressing T cells with Ramos-Fcε target cells, E:T 5:1, dilutions of blinatumomab from 1 nM; EC50 of T-cell activation [5]: 0.014 nM; EC50 [6]: 2.5 nM; EC50 [7]: 5 nM |

Now from value to substance, other results behind:

| EC50 [4] [nM] | IL-2 promoter-luciferase reporter in CD3-overexpressing T cells, fold activation with Ramos-Fcε target cells, E:T 2.5, at 400 pM [1] [fold] | NFAT-luciferase reporter in CD3-overexpressing T cells, fold induction with Ramos-Fcε target cells, E:T 5:1, at 80 pM [3] [fold] | Substance | also measured |
| --- | --- | --- | --- | --- |
| 0.4 |  |  | ligelizumab-based BiTE (anti-IgE scFv of ligelizumab fused to anti-CD3ε scFv) (bispecific antibody) | IL-2 promoter-luciferase reporter in CD3-overexpressing T cells, fold specific activation with Ramos-Fcε target cells, E:T 2.5, at 2 nM [1]: 7 fold; NFAT-luciferase reporter in CD3-overexpressing T cells, fold activation with Ramos-Fcε target cells, E:T 1:1, 400 pM (59-fold) to 2000 pM [2]: 162 fold; NFAT-luciferase reporter in CD3-overexpressing T cells, fold induction with Ramos-Fcε target cells, E:T 5:1, at 400 pM [3]: 47 fold |
| 2 | 2 | 11 | omalizumab-based BiTE (anti-IgE scFv of omalizumab fused to anti-CD3ε scFv) (bispecific antibody) | NFAT-luciferase reporter in CD3-overexpressing T cells, fold activation with Ramos-Fcε target cells, E:T 1:1, at 80 pM [2]: 5 fold |
